Residue numbers refer to the chain shown, from its start. Names may count otherwise. Values belong to the binder of their own block, whether it stands above or below them.
Target: T1, SRC (UniProt P12931 2-536, limits assumed)
T1 construct: whole, on cells; Endogenous intracellular protein in cell lysates or stained cells; also called p-SRC (phosphorylated form)
Assay: immunoprecipitation with ICAM-1 Tyr512 mutants

binding result: binds
B1: ICAM-1 Y512A mutant (receptor)
chain: QTSVSPSKVILPRGGSVLVTCSTSCDQPKLLGIETPLPKKELLLPGNNRKVYELSNVQEDSQPMCYSNCPDGQSTAKTFLTVYWTPERVELAPLPSWQPVGKNLTLRCQVEGGAPRANLTVVLLRGEKELKREPAVGEPAEVTTTVLVRRDHHGANFSCRTELDLRPQGLELFENTSAPYQLQTFVLPATPPQLVSPRVLEVDTQGTVVCSLDGLFPVSEAQVHLALGDQRLNPTVTYGNDSFSAKASVSVTAEDEGTQRLTCAVILGNQSQETLQTVTIYSFPAPNVILTKPEVSEGTEVTVKCEAHPRAKVTLNGVPAQPLGPRAQLLLKATPEDNGRSFSCSATLEVAGQLIHKNQTRELRVLYGPRLDERDCPGNWTWPENSQQTPMCQAWGNPLPELKCLKDGTFPLPIGESVTVTRDLEGTYLCRARSTQGEVTRKVTVNVLSPRYEIVIITVVAAAVIMGTAGLSTYLYNRQRKIKKARLQQAQKGTPMKPNTQATPP
notes: Mutant expressed in cells for immunoprecipitation

binding result: binds
B2: ICAM-1 Y512D mutant (receptor)
chain: B1 chain with A485D
notes: as for B1
